Assay results from paper PMC12603982 (Angewandte Chemie (International Ed. in English), 2025).
Positions of bridges follow the written chain, without caps; N, C: chain ends. Non-standard residues stand in square brackets, D forms with d. Groups on a side chain read outwards from the residue. Primed or numbered codes have the meaning given here. No end group written: not given here. εdLys = D-Lys linked through its epsilon amine (k^ε); PEG5′ = PEG5 spacer, as named in the construct; Cy3s = Cy3s fluorophore, as named; Cy5s = Cy5s fluorophore, as named; Orn = NCCC[C@H](N)C(=O)O; Mpa = O=C(O)CCS

T1: human oxytocin receptor (hOTR) (human, UniProt P30559 1-389)
T1 construct: oxytocin receptor, human; in membrane preparations or on cells; constructs are in the Supporting Information; source: HEK293, stably expressing; membrane preparations (radioligand assay); free-floating cells (FACS)
T1 sequence (looked up): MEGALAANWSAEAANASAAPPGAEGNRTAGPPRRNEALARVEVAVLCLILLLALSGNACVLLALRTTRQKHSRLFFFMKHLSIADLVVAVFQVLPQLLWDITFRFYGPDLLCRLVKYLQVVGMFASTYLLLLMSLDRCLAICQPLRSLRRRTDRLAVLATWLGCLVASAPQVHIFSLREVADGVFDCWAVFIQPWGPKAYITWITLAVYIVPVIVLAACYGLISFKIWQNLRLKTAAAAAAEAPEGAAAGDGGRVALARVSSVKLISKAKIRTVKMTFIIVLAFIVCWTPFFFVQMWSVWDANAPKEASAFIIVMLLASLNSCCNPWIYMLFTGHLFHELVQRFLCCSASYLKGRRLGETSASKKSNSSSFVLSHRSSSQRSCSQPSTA

T2: human vasopressin V1b receptor (hV1bR) (human, UniProt P47901 1-424)
T2 construct: vasopressin V1b receptor, human; in membrane preparations; source: HEK293, stably expressing; membrane preparations
T2 sequence (looked up): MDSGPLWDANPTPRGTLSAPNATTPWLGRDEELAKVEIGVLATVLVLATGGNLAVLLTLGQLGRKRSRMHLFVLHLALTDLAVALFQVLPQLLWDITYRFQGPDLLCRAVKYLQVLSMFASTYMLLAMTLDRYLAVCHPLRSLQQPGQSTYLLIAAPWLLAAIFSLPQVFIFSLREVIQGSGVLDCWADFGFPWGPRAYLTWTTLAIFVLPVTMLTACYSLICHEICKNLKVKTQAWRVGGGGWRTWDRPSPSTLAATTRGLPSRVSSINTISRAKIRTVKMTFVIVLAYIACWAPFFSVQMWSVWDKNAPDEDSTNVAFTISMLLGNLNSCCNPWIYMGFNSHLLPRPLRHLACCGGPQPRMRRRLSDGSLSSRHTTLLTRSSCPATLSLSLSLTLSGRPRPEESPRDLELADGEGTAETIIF

T3: murine vasopressin V1b receptor (mV1bR) (murine, UniProt Q9WU02 1-421)
T3 construct: vasopressin V1b receptor, murine; in membrane preparations; source: HEK293, transiently expressing; membrane preparations
T3 sequence (looked up): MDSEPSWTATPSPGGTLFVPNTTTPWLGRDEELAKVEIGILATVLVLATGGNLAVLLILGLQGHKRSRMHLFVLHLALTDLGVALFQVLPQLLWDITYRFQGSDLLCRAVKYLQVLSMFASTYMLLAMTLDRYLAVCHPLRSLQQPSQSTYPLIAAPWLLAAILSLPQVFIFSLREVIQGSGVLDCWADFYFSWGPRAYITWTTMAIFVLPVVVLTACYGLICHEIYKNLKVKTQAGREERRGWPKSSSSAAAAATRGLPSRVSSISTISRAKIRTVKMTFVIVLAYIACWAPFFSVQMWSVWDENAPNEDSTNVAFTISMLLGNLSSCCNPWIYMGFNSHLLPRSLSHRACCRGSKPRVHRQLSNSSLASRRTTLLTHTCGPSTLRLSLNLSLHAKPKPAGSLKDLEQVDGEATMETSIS

T4: murine oxytocin receptor (mOTR) (murine, UniProt P97926 1-388)
T4 construct: oxytocin receptor, murine; in membrane preparations; source: HEK293, transiently expressing; membrane preparations
T4 sequence (looked up): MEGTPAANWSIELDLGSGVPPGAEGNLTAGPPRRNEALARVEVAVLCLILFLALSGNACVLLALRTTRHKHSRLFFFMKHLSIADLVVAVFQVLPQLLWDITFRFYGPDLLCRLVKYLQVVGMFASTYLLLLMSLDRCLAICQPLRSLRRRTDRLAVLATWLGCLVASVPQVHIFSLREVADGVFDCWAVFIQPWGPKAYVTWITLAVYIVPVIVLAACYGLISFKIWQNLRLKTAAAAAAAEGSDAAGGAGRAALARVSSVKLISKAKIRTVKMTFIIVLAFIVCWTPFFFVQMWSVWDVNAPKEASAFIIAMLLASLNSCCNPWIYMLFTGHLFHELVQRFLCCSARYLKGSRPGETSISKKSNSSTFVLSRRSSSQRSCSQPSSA

B1: Oxytocin (OT) (peptide)
peptide: CYIQNCPLG
notes: oxytocin, endogenous nonapeptide ligand of OTR; numbers count on: the mature nonapeptide
B2: Vasopressin (VP) (peptide)
peptide: CYFQNCPRG
notes: vasopressin (arginine at position 8), endogenous nonapeptide; numbers count on: the mature nonapeptide

How the values were obtained:
Conditions in all cases: one partner purified
[1] = biological target: T1, human oxytocin receptor (hOTR); test: radioligand binding; displacement of [3H]-OT or [3H]-VP from membrane preparations of HEK293 cells stably expressing the human receptor; dose-response curves in duplicates, at least three independent experiments; Ki >10 µM assigned where <25% of the radioligand was displaced at 10 µM
[2] = biological target: T5, human vasopressin V1a receptor (hV1aR) (human, UniProt P37288 1-418); test: as above
T5 construct: vasopressin V1a receptor, human; in membrane preparations; source: HEK293, stably expressing; membrane preparations
T5 sequence (P37288 whole entry): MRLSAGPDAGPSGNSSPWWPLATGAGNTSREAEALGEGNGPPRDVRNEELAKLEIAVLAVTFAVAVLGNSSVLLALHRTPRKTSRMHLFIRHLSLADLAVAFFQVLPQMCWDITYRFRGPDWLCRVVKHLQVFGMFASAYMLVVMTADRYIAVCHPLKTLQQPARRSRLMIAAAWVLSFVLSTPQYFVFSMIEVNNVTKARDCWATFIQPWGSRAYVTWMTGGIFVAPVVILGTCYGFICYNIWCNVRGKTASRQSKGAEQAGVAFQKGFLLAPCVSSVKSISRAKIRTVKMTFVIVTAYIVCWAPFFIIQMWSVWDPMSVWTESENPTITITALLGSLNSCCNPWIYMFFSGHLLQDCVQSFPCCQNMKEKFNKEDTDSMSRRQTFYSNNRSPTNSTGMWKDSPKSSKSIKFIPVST

[3] = biological target: T2, human vasopressin V1b receptor (hV1bR); test: as above
[4] = biological target: T6, murine vasopressin V1a receptor (mV1aR) (murine, UniProt Q62463 1-423); test: radioligand binding; displacement of [3H]-OT or [3H]-VP from membrane preparations of HEK293 cells transiently expressing the murine receptor; dose-response curves in duplicates, at least three independent experiments; Ki >10 µM assigned where <25% of the radioligand was displaced at 10 µM
T6 construct: vasopressin V1a receptor, murine; in membrane preparations; source: HEK293, transiently expressing; membrane preparations
T6 sequence (Q62463 whole entry): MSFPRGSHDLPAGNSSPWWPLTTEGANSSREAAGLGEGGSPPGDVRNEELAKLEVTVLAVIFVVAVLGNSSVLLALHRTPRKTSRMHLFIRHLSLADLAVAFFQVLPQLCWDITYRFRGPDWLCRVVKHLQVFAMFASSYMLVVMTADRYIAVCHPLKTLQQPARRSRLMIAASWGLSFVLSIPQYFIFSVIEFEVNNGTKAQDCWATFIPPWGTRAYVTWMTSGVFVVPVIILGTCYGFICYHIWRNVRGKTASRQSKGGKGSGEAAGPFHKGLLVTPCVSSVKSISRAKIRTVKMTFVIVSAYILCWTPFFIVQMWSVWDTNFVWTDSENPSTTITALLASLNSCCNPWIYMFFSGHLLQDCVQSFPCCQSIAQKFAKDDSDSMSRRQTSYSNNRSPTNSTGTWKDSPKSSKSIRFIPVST

[5] = biological target: T3, murine vasopressin V1b receptor (mV1bR); test: as above
[6] = biological target: T7, murine vasopressin V2 receptor (mV2R) (murine, UniProt O88721 1-371); test: as above
T7 construct: vasopressin V2 receptor, murine; in membrane preparations; source: HEK293, transiently expressing; membrane preparations
T7 sequence (O88721 whole entry): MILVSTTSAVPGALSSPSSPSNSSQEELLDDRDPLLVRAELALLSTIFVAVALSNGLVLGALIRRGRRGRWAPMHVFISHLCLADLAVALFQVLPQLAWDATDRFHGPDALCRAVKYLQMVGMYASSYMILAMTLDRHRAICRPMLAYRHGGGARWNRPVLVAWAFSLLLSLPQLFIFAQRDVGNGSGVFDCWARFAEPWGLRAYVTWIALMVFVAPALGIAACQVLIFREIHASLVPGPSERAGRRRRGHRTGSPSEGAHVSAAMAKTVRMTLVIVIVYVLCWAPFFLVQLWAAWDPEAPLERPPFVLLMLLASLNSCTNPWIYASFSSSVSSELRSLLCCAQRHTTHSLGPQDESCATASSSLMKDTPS

[7] = biological target: T4, murine oxytocin receptor (mOTR); test: as above

Binder	Ki [1]	Ki [2]	Ki [3]	Ki [4]	Ki [5]	Ki [6]	Ki [7]
[Mpa]YIQNCP[Orn]([PEG5′-PEG5′-εdLys-Cy3s])G (disulfide 1-6) [d(Orn)^8OT‐[PEG5‐PEG5‐k^ε‐Cy3s]^8]	1.5 nM	22 nM	199 nM	–	–	–	–
[Mpa]YIQNCP[Orn](Cy5s)G (disulfide 1-6) [d(Orn)^8OT‐[Cy5s]^8]	0.9 nM	23 nM	86 nM	–	–	–	–
[Mpa]YIQNCP[Orn]G (disulfide 1-6; not fully specified (residue 8)) [d(Orn)^8OT‐[d‐PEG5‐k^ε‐AF488]^8]	22.6 nM	1430 nM	1800 nM	–	–	–	–
B1	–	–	–	1400 nM	416 nM	1570 nM	–
[Mpa]YIQNCP[Orn]([PEG5′-εdLys-Cy3s])G (disulfide 1-6) [d(Orn)^8OT‐[PEG5‐k^ε‐Cy3s]^8]	1.4 nM	21 nM	242 nM	–	–	–	–
[Mpa]YIQNCP[Orn]([PEG5′-Cy3s])G (disulfide 1-6) [d(Orn)^8OT‐[PEG5‐Cy3s]^8]	1.5 nM	80 nM	372 nM	–	–	–	–
[Mpa]YIQNCP[Orn]([PEG5′-εdLys-Cy5s])G (disulfide 1-6) [d(Orn)^8OT‐[PEG5‐k^ε‐Cy5s]^8]	1.2 nM	11 nM	176 nM	–	–	–	–
[Mpa]YIQNCP[Orn]G (disulfide 1-6) [d(Orn)^8OT]	0.7 nM	0.4 nM	0.8 nM	–	–	–	–
[Mpa]INYQCP[Orn]([dD-PEG5′-εdLys-Cy3s])G (disulfide 1-6 (inferred)) [scrambled cyclic tracer dCINYQCP(Orn)G‐[d‐PEG5‐k^ε‐Cy3s]^8]	> 10000 nM	> 10000 nM	> 10000 nM	> 10000 nM	> 10000 nM	> 10000 nM	> 10000 nM
[Mpa]YIQNCP[Orn]([PEG5′-Cy5s])G (disulfide 1-6) [d(Orn)^8OT‐[PEG5‐Cy5s]^8]	1.3 nM	70 nM	376 nM	–	–	–	–
[Mpa]YIQNCP[Orn]([dD-PEG5′-Cy5s])G (disulfide 1-6) [d(Orn)^8OT‐[d‐PEG5‐Cy5s]^8]	6 nM	553 nM	1320 nM	–	–	–	–
[Mpa]YIQNCP[Orn]([εdLys-εdLys-Cy3s])G (disulfide 1-6) [d(Orn)^8OT‐[k^ε‐k^ε‐Cy3s]^8]	0.8 nM	3.3 nM	10 nM	–	–	–	–
B2	–	–	–	1 nM	0.4 nM	–	8.1 nM
[Mpa]YIQNCP[Orn]([dD-PEG5′-εdLys-TAMRA])G (disulfide 1-6) [d(Orn)^8OT‐[d‐PEG5‐k^ε‐TAMRA]^8]	7.5 nM	631 nM	932 nM	–	–	–	–
